Drawing on PMC11775607 (Nucleic Acids Research, 2025), this text covers Kd for one molecule.

One may read the Kd as the equilibrium constant for the complex coming apart.

The target of the assay is recombinant WBSCR16-GST fusion protein (mouse, UniProt Q9CYF5 35-461). As to the kind of experiment: SPR. Background: In SPR one partner is held on a chip, and binding of the other changes the refractive index at the surface.

B1: recombinant MRPP3-His fusion protein (230–583 amino acids of MRPP3) (domain or fragment)
chain: LLLLEDIKKVITPSKKNYNDCIQGALLHQDVNTAWNLYQELLGHDIVPMLETLKAFFDFGKDIKDDNYSNKLLDILSYLRNNQLYPGESFAHSIKTWFESVPGKQWKGQFTTVRKSGQCSGCGKTIESIQLSPEEYECLKGKIMRDVIDGGDQYRKTTPQELKRFENFIKSRPPFDVVIDGLNVAKMFPKVRESQLLLNVVSQLAKRNLRLLVLGRKHMLRRSSQWSRDEMEEVQKQASCFFADDISEDDPFLLYATLHSGNHCRFITRDLMRDHKACLPDAKTQRLFFKWQQGHQLAIVNRFPGSKLTFQRILSYDTVVQTTGDSWHIPYDEDLVERCSCEVPTKWLCLHQKT
B1: the Kd was 37 nM.
